Results: patent US7393918B2, “Protein binding miniature proteins and uses thereof” (priority 2003, dated 2008)

Columns and labels:
Mena1-112 EVH1 domain = Mena1-112 EVH1 domain (Mus musculus, UniProt Q03173); test: tryptophan fluorescence perturbation analysis of EVH1 domain binding; settings: all EVH1 domains tested (Mena1-112, VASP1-115, Evl1-115)
L. monocytogenes = L. monocytogenes actin-based motility in Xenopus laevis egg cytoplasmic extracts; parameters: species or system Listeria monocytogenes
Description: Errors bars show the intraquartile range.
L. monocytogenes motility in mammalian cells and extracts is due to interactions between the 639-residue bacterial protein ActA and host proteins that recruit and activate actin polymerization. Addition of 10 μM ActA11 decreased the median speed of L. monocytogenes by 89%, consistent with previous work. […] Further experimentation will be required to fully understand the molecular events that result in altered motility.

Mena1-112 = Mena1-112 (Mus musculus, UniProt Q03173); test: competition with pGolemi^Flu for binding to Mena1-112; settings: read-out: IC50, competition with pGolemi^Flu for binding to Mena1-112
Mena1-112, sequence (Q03173 1-112): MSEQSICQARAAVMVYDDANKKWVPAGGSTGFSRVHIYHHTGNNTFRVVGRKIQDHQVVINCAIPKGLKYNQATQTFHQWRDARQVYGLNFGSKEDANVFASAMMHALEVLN

Mena1-112 EVH1 domain, sequence (Q03173 1-112): as above

## ActA11: 11 residue peptide comprising PPII repeat 2 of L. monocytogenes ActA; best previously known Mena ligand (DFPPPPTDEEL; ActA11, peptide comprising PPII repeat of ActA protein)
Mena1-112 EVH1 domain
  Krel among EVH1 domains: < 3
L. monocytogenes; 10 μM
  decrease of median speed of L. monocytogenes: 89%
L. monocytogenes; any concentration tested
  discontinuous tail formation of L. monocytogenes: Discontinuous tails were not observed
Mena1-112
  IC50: 4 ± 0.2 µM
